According to patent publication US20010046966:

What was measured:
GATA-2 = GATA-2 (UniProt O09100); assay: cell_activity; settings: NIH3T3 luciferase
GATA-3 = GATA-3 (UniProt P23772); assay: cell_activity; settings: NIH3T3 luciferase
Chain of GATA-3 (P23772 whole entry): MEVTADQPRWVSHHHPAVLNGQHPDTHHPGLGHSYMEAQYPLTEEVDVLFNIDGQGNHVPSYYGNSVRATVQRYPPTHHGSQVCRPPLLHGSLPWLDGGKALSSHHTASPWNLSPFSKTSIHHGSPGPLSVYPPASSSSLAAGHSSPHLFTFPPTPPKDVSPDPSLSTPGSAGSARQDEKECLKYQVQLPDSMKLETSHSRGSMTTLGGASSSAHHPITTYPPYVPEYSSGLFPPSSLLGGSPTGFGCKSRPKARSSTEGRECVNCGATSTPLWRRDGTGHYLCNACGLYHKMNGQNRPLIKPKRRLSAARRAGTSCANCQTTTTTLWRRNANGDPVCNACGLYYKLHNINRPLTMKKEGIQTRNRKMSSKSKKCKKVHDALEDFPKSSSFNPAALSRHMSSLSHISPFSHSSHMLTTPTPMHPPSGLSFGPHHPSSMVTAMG

Chain of GATA-2 (O09100 whole entry): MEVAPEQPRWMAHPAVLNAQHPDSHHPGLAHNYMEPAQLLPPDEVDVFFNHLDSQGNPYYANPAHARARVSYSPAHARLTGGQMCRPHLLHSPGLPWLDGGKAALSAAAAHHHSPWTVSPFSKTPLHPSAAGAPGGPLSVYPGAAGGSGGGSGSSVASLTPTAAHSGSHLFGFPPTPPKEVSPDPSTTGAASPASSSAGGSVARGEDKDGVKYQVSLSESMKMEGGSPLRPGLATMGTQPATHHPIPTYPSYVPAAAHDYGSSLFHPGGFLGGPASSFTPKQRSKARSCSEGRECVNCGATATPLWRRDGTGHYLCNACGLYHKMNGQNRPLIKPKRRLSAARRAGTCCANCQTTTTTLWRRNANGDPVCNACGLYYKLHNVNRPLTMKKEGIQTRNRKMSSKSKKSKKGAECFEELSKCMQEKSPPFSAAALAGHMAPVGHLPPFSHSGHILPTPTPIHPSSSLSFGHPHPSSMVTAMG

With “PPAR-gamma2 promoter -603 to +62 luciferase reporter” the activity (fold suppression) (GATA-2) was 5 and the activity (fold suppression) (GATA-3) was 5.
